The record followed here is patent US20240400720A1 (NOVIMMUNE S A, published 2024).

Numbering of substitutions follows the chain as printed.

The target of assay [1] is T1, human CD47 on the cell surface (human, UniProt Q08722 19-323).
T1 construct: whole, on cells; also called huCD47; native CD47
Kind of assay: CD47-SIRPα inhibition assay on Raji cells (competition with soluble SIRPα).

For assay [2], the target named is T1, human CD47 on the cell surface. Kind of assay: adsorption on erythrocytes: antibody 10 µg/ml in human whole blood, 30 min at 37 °C, antibody left in plasma measured by ELISA. As to the method: (§1) With more than 5 billion cells per ml of blood, and 25,000 CD47 molecules per cell, erythrocytes represent potentially the major antigen sink for CD47-binding antibodies. To assess the effect of erythrocyte adsorption, CD47 antibodies were incubated with whole blood. Following incubation, the fraction of CD47 antibodies remaining in the plasma was determined by ELISA.
(§2) In brief, 200 μl of whole blood containing an anti-coagulant was mixed with 20 μl of antibody ([…] in PBS) and incubated for 30 minutes at 37° C. with shaking. The plasma was then separated from the cells by centrifugation, and the concentration of unbound antibody determined by ELISA.
(An ELISA detects its analyte on a solid surface through an enzyme-linked reagent.)

The target in assay [3] is T2, cynomolgus monkey CD47 on CD4+ T cells (cynomolgus monkey, UniProt A0A5F8AK49 19-323 (rhesus entry)).
T2 construct: whole, on cells; also called cynomolgus CD47
The assay can be described thus: flow cytometry on CD4+ T cells in cynomolgus PBMC. Background: A flow cytometer gives signals particle by particle.

The target in assay [4] is T3, human CD47 (human, UniProt Q08722 19-141, limits assumed).
T3 construct: also called hCD47
The assay can be described thus: screening of Examples 3 to 6.

Assay [5] addresses T1, human CD47 on the cell surface. Kind of assay: CD47-SIRPα competitive binding assay: His-tagged soluble human SIRPα (200 ng/ml) on hCD47-transfected CHO cells, antibody 3.3 pM-330 nM; blocked ligand SIRPα.
The target of assay [6] is T3, human CD47. Kind of assay: affinity ranking told with the hemagglutination test. On the procedure: CD47 MAbs were tested for their ability to induce homotypic clustering of erythrocytes (hemagglutination). 10 microliters of human whole blood was diluted in 40 microliters of antibody solution in PBS at different concentrations (range: 0.003 microg/ml to 50 microg/ml final Mab concentration) in flat-bottom 96 well plates. The blood-antibody mix was incubated O/N at 37° C. without shaking. At the end of the incubation, the plates were agitated manually, tilted at about […], and let to rest for about 10 minutes.

Assay [7] has as its target T1, human CD47 on the cell surface. The assay can be described thus: flow cytometry, CHO cells stably transfected with human CD47, antibody 10 µg/ml, Cy-5 anti-human Fc; non-transfected CHO cells as control. On the procedure: Non-transfected CHO cells were used as control. In brief, purified CD47 Mabs were incubated with CHO-huCD47 cells at a final concentration of 10 μg/ml for 30 minutes. After two washes, bound CD47 antibodies were detected using a Cy-5 conjugated anti-human Fc secondary antibody (BD biosciences).

In assay [8] the target is T3, human CD47. Kind of assay: affinity maturation by phage display on hCD47; positive in hCD47-SIRPα inhibition screen, reformatted as IgG.
Assay [9] deals with T4, human CD19 on Raji cells (human, UniProt P15391 20-556).
T4 construct: whole, on cells; also called native form of hCD19
T4 sequence (looked up): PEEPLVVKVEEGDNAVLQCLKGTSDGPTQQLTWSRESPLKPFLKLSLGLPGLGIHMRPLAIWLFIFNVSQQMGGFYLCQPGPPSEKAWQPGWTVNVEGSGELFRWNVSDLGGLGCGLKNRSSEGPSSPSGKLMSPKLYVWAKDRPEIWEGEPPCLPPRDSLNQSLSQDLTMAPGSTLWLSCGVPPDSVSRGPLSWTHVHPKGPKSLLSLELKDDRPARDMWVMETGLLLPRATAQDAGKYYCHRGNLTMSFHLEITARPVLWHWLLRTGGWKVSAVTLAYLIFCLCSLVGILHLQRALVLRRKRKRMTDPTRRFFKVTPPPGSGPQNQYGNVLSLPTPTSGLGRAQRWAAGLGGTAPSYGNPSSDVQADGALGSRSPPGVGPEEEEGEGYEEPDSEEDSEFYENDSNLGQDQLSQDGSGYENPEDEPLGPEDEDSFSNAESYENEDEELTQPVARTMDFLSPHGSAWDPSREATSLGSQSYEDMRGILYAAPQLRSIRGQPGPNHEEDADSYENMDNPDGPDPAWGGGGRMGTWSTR
Kind of assay: FACS on Raji cells (CD19-positive), dose-response.

In assay [10] the target is T5, human CD19 (human, UniProt P15391 20-291, limits assumed).
T5 construct: also called hCD19
T5 sequence (looked up): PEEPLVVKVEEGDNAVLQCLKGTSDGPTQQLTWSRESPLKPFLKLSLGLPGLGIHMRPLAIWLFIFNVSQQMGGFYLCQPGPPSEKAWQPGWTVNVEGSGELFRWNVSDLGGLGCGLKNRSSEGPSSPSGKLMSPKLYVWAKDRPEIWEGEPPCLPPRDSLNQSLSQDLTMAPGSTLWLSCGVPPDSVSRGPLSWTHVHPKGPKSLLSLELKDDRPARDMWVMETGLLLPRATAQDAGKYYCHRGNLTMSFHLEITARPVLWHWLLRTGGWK
Kind of assay: affinity maturation of B7.

Assay [11] addresses T1, human CD47 on the cell surface. The assay can be described thus: adsorption on erythrocytes: antibody in human whole blood, 30 min at 37 °C, antibody left in plasma measured by ELISA. As to the method: as §1, §2
The target of assay [12] is T5, human CD19. The assay can be described thus: parental antibody, weaker than D11.

A word on the IC50: it is the point on the concentration scale where inhibition reaches its midpoint. The term EC50 (read off the curve) denotes the concentration needed to bring the measured effect to its halfway point.

B1: CD47xCD19 bispecific antibody with CD47 arm Ke8G11 (bispecific antibody)
heavy: not shown
light 1: DIQMTQSPSSLSASVGDRVTITCRASQSIGRYLNWYQQKPGKAPKLLIYAASSLQSGVPSRFSGSGSGTDFTLTISSLQPEDFATYYCQQMHPRGPKTFGQGTKVEIKRTVAAPSVFIFPPSDEQLKSGTASVVCLLNNFYPREAKVQWKVDNALQSGNSQESVTEQDSKDSTYSLSSTLTLSKADYEKHKVYACEVTHQGLSSPVTKSFNRGEC
light 2: NFMLTQPHSVSESPGKTVTISCTRSSGSIEDKYVQWYQQRPGSSPTIVIYYDNERPSGVPDRFSGSIDSSSNSASLTISGLKTEDEADYYCQTYDQSLYGWVFGGGTKLTVLGQPKAAPSVTLFPPSSEELQANKATLVCLISDFYPGAVTVAWKADSSPVKAGVETTTPSKQSNNKYAASSYLSLTPEQWKSHRSYSCQVTHEGSTVEKTVAPTECS
notes: also called Ke8G11 CD47Xcd19 BsAb; κλ body
The molecule B1 returned an IC50 in [1] of 0.066 nM.

B2: 5A3M3xC2 (bispecific antibody, human IgG1, kappa, lambda)
common heavy chain: not shown
kappa light chain (5A3-M3, anti-CD47): not shown
lambda light chain (C2, anti-CD19): B1 light 2
notes: m69 has the same CD47 arm but no named CD19 arm; also called bispecific antibody 5A3-M3×C2
Turning to B2, the binding result in assay [2] is reported as “binds”.

B3: Ke8 antibody (antibody, human IgG1, kappa, V domains shown)
VH: not shown
VL: DIQMTQSPSSLSASVGDRVTITCRASQSISSYLNWYQQKPGKAPKLLIYAASSLQSGVPSRFSGSGSGTDFTLTISSLQPEDFATYYCQQFHKRRPQTFGQGTKVEIKR
notes: IgG, kappa (IGVK1-39)
Regarding B3, the binding result is “no binding (tested: 0.005 mg/ml)” in assay [3], “binds” in assay [4] and “binds” in assay [5].

B4: Ke8A3 antibody (antibody, human IgG1, kappa, V domains shown)
VH: not shown
VL: B3 VL with A25V, S31K, F91R, K93P, R95G, Q97S
notes: IgG
For B4, the binding result in [5] and in assay [6] was “binds” throughout.

B5: Ke8A2 antibody (antibody, human IgG1, kappa, V domains shown)
VH: not shown
VL: B3 VL with S30D, S31R, F91K, K93P, R95G, Q97R
notes: IgG; also called KE8-P2A2; KE8A25
Turning to B5, the binding result in assay [7] and in assay [8] was “binds” each time.

B6: D11 antibody (antibody, human IgG1, lambda, V domains shown)
VH: not shown
VL: NFMLTQPHSVSESPGKTVTISCTRSSGSIDDKFVQWYQQRPGSSPTTVIYYDNIRPSGVPDRFSGSIDSSSNSASLTISGLKTEDEADYYCQSYDASLYGWVFGGGTKLTVLG
notes: anti-CD19, IgG, lambda; also called L7B7_D11
As for B6, the binding result in assay [9] and in [10] was “binds” in each case.

B7: C2 antibody (antibody, human IgG1, lambda, V domains shown)
VH: not shown
VL: B6 VL with D30E, F33Y, T47I, I54E, S93T, A96Q
notes: anti-CD19, IgG, lambda; also called L7B7_C2; L7B7_c2
For B7, the “EC50 (read off the curve)” value in assay [9] is roughly 0.4 nM. Also, the binding result in assay [11] is “no binding (tested: 10 µg/ml)”.

B8: B7 antibody (antibody, human IgG1, lambda, V domains shown)
VH: not shown
VL: B6 VL with D30A, F33Y, Y51E, I54Q, A96S
notes: anti-CD19, IgG, lambda (IGLV6-57); parental clone; also called 1B7
For the molecule B8, the binding result in assay [12] and in assay [9] was “binds” throughout.
